Experimental data: the nanobody polyreactivity screen of Harvey et al. (2022)

Test: yeast display, Sf9 membrane polyspecificity reagent, FACS + sequencing; frameworks hold sequencing errors
In short: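 Synthetic nanobody libraries on Saccharomyces cerevisiae BJ5465 were galactose-induced for 36–48 hours, stained 1 hour at 4 °C with 10% biotinylated, detergent-solubilized Sf9 membrane reagent and enriched on streptavidin microbeads. FACS then separated cells into low and high (top ~1%) gates by anti-HA (expression) and streptavidin (reagent binding) fluorescence. Genes were colony-PCR amplified, MiSeq 2 × 250 sequenced and CDR-length filtered. A clone's polyreactivity label is that of its gate of origin.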

Sequence	polyreactivity (PSR sort gate)
QVQLVDSGGGLVQAGGSLRLSCAASGFTFTRYAMGWYRQAPGKERELVADITRGGSTNYADSVKARFTISRDNAKNTVYLQMNSLKPEDTAVYYCNAGAITNYDYCGQGTQVTVSS	high polyreactivity
QVHLVESGGGLVQAGGSLRLSGAASGFTFYRYAMGWSRQAPGKERELVAAITSGAITYYADSVKGRFTISRDNAKNTVYLQMNSLKPEETAVYYCNAVYRVAAIVRYDYWGQGTQVTVSS	high polyreactivity
QVQLVESGGGLVQAGGSLRLSCPASGRIFHRNTMGWYRPAPGKERELVAAIRSGSRTYYADSVKGRFTISRDNAKNTVYLQMNSLKPEDKAVYYCATTYGSPRYDYWGQGTQVTVSS	high polyreactivity
QVQLVESGGGLVQAGGSLRLSCAASGSIRSYAMGWYRQAPGKERELVAAITRSGGSTYYADSVKGRFTISRDNAKNTVYLQMNSLKPEDTAVYYCAAEVRGKSRSTRVSYRYDYWGQGTQVTVSS	high polyreactivity
QVQLVESGGGLVQAGGSLRLSCAASGFILTQYAMGWYREAPGKERELVASISSSGSTYYADSVKGRFTISRDNAKNTVYLQMNSLKPEDTGVYYCATPGPAVHGTRGEYDYWGQGTQVTVSS	high polyreactivity
QVQLVESGGGLVQAGGSLRLSCAASGNTFLRYAMGWYRQAPGKERELVAAISTSGDSTYYADSVKGRFTISRDNAKNTVYLQMNSLKPEDTAVYYCAAAWYIHTIAYGCWGQGTQVTVSS	high polyreactivity
QVQLVESGGGLVQAGGSLRLSCAASGRIFRGYARGWYRQAPGKEREFVAAITKNGGSTYYADSVKGRFTISRDNAKNTVYLQMNSLKPEDTAVYYCAVRAWDPYTGKSDYWGQGTQVTVSS	low polyreactivity
QVQLVESGGGLVQAGGSLRLTCAASGITLGFYAMGWYRQAPGKERELVAAISGRGGSTYYADSVKGRFTISRDNAKNTVYLKMNSLKPEDTPVYYCNALGYYQLVTPFYYWGQGTQVTVSS	high polyreactivity
QVQLVESGAGLVQAGGSLRLSCAASGFIFFYYAMGWYRQAPGKERELVAAISASGGSTYYADSVKGRFTISRDNAKNTVYLQLNSLKPEDTAVYYCAARYRKAESARWEYDYWGQGTQVTVSS	high polyreactivity
HVQLVESGGGLVQAGGSLRLSCAASGSTFGQYTMGWYRQAPGKERELVATISSGGSTYYADSVKGRFTISRDNAKHTVYLQMNSLKPEDTAVYYCAARYWSIYDYWGQGTQVTVSS	low polyreactivity
QVQLVESGGGLVQARGSLRLSCAASGSIFPGYAMRWYREAPGKARELVAAISTSGGSTYADSVTGRFTISRDNAKNTGYLQMNSLKPEDTAVYYCAATYTYTSPVYYSLDGPWPYDYWGQGSQVTVSS	low polyreactivity
QVHLVESGGGLVQAGGSLRLSCAASGRTFYANAMGWYIQAPGKERELVAAISTGGDGTYYADSVKGRFTISRDNAKNTVYLQMNSLKPEDTAVYYCAVRHRASGILYDYWGQGTQVTVSS	low polyreactivity
QVQLVESGGGLVQAGGSLRLSCAASGSTFKRYAMGWYRQAPGKERELVAAIRRGGITNYADSVKGRFTISRDNAKNTVYLQINSLKPEDTAVYYWAATSIYSNYYREGYWGQGTQVTVSS	low polyreactivity
QVQLVESGGGLVQAGGSLRLSCAASGITFYHNAMGWYRPAPRKERELVATISRRGGRTYYADSVKGRFTISRDNAKNTVYLQMNSLKPEDTAVYYCAAAQKQSRYDYWGQGTQVTVSS	high polyreactivity
QVQLVESGGGLVQAGGSLRLSCAASGSTFVRYTMGWYRQAPGKERELVAGITGGGSTNYADSVKGRFTISRDNAKNTVYLQMNSLKPEDTAVYYCAADLWWERAYPEYDYWGQGTQVTVSS	low polyreactivity
QVQLVESRGGLVQAGGSLRLSCAASGRTFDRNAMGWYRQAPGKERQFVAAITSRVGSTYYADSVKGLFTISRDTAKNTVYLQMNSQKPEDTAVYDCNKRYFGEQTWVGGDSWGQGTLVTVSS	high polyreactivity
QVQLVESGGGLVQAGGSLRLSCAASGRTFGYNAMAWYRQAPRKERELVAAISRGGSTNYADSVKGRFTISRDNAKNTVYLQMNSLKPEDTAVYYCAAYDWRVLWGYDYWGQGTQVTVSS	low polyreactivity
QVQLVESGGGLVQAGGSLRLSCAASGFIFRYNAMGWYIQAPGKERELVASIDWSGGSTYYADSVKGGFTISRDNAKITVYLQMNSLKPEDTEVYYCAADTSYWYDYYIDYVGYYYWGQGTQVTVSS	high polyreactivity
QVQLVESGGGLVQAGGSLRLSCAASGRTYISNVIGWYRQAPGKERELVAAISGSSGSTRYADSVKGRFTISRDNAKNTVYLQMNSLKPEDSAVYYCAARAPWPKWGYYYWGQGTQVTVSS	high polyreactivity
QVQLVESGGGLVQAGGSLRLSCAASGFTFYGYAMGWYRQAPGKDRELVARITVRGSTTYYADSVKGRFTISRDNAKNTVYLQMNSLKPEDTAFYYCNASWVYSRFRPLDYDLDYWGQGTQVTVSS	low polyreactivity
QVHLVESGGGLVQAGGSLRLSCAASGSIFAGNAMGLSRQAPGKERELVAGISRSGGSTNYADSVKGRFTISRDNAKNSVYLQMNSLKPEDTAVYYCNTDPYSSAWYNYDYWGLGTQVTVSS	low polyreactivity
QVQLVESGGGLVQAGGSLRLSCAASGSIFKYYAMGWYRQATGKERELVAAISSGGSTKYADSVKGRFTITRDNAKNTVYLQMNSLKPEDTAVYYCAARDPSRHARRAYDYWGQGTQVTVSS	low polyreactivity

Sequence	polyreactivity (PSR sort gate)
QVQLVDSGGGLVQAGGSLRLSCAASGSIFTYNGKVWYRQAPGKEREFVAAITWTGGSTYADSVKGRFTISSDNSNNTVYLQMNSLKREDTAVYYCAAVRRISWYTPVNTRRYYYWGQGTQVTVSS	high polyreactivity
QVQLVESGGGLVQAGGSLRLSCAASGYTFSRNAMGWYRPAPGKERELVAAITGSGGSTYYADSVKGRFTISRDNAKNTVYLQMNSLKPEDTAVYYCASKYYGRSFYYGYDYWGQGTQVTVSS	low polyreactivity
QVQLVESGGGLVQAGGSLRLSCAASGYTFGSNAMGWYRQAPGKERELVAAISNGGSTNYADSVKGRFTISRDNAKNTVYLQMTSLKPEDTAVYYCAAASRWHIGYWRYDYWGQGTQVTVSS	low polyreactivity
NVQLVESGGGLVQAGGSLRLSCAASGRTFNGYAMGWYRQAPGKERDLVASISWSGGRTYYADSVKGRFTISRDNAKNTVYLQMNSLKPEDTAVYYCAATFVNVVGYDYWGQGTQVTVSS	high polyreactivity
QVQLVESGGGLVQAGGSLRLSCAASGLIFVVYVMGWYRQAPGKERQLVAAMYGSGDSTYYADSVKGRFTISRDNAKNSVSLKMNSLKPEDTAVYSCAAKAFISDGYWYGYWGQGTQVTVSS	high polyreactivity
QVQLVESGGGLVQAGGSLRLSCAASGRTFGQYAMGLYRQAPGKERELVAAITTRGGSTYYADSVKGRFTISRDNAKNTVYLQMNSLKPEDTAVYYCNADYPVKRRRGRDYWGQGTQVTVSS	high polyreactivity
QVQLVESGGGLVQAGGSLRLSCAASGRIFYKYAMGWYRQAPGKERELVAVINRGGTTYYADSVKGRFTISRDNGKNTVYLQMNSLKPDDTAVYYCNTVADYRRFGYWGQGTQVTVSS	high polyreactivity
QVQLVESGGGLVQAGGSLRLSCAASGSTFYPYAMGWYRQAPGKERELVAGIRSGGSTNYADSVKGRFTISRDNAKNTVYLQMNSLKPEDTAVYYCAARRWRTQDRSHFDYWGQGTQVTVSS	low polyreactivity
QVQLEESGGGLVQAGGSLRLSCAASGSIFAVYAMGWYIQAPGKERELVATISGRGGSTYYADSVKGRFTISRDNAKNTVYLQMNSLKPEDTAVYYCNARVLFRRERMDSWGQGTQVTVSS	high polyreactivity
QVQLVESRGGLVQAGGSLPLSCAASGSIFDRYAMGWYRQAPGKERELVAAISRSGGSTYYADSVKGRFTISRDNAKNTVYLQMNSLKPEDTAVYYCAARARSLYDYWGQGTQVTVSS	high polyreactivity
QVQLVESGGGLVQAGGSLRLSCAASGSIFGYYAMGWYRQAPGKERELVAAINRDGGSTYYADSVKGRFTISRDNAKNTVYLQMNSLKPEDTAVYYCAAVVRRPGPGRMDYWGQGTQVTVSS	low polyreactivity
QVQLVESGAGLVQAGGSLRLSWAASGSNYDIYAMGWYRQAPGKERELVAAITGSGGSTNYADSVKGRFTISRDNAKNTVYVQLNSLKPEDTAVYYCAAAGFDYPSDTYGYWGQGTQVTVSS	low polyreactivity
QVHLVESGGGLVQAGGSLRLSCAASGRTFIGNAMGWYRQATGKERELVAGITWSGGRSYYADSVKGRFTISRDNAKNTVYLQMNSQKPEDTAVYYCGRAGQSSRMNYWGQGTQVTVSS	high polyreactivity
QVQLVESGGGLVQAGGSLRLSCAASGITFVDNAMGWYRQAPGKERELVAVISSSGGSTYYADSVKGRFTISRDNAKNTVYLQMNSLKPEDTAVYYCAARNRFYRRPYDYWGQGTQVTVSS	high polyreactivity
QVQLVESGGGLVQAGGSLRLSCAASGGTISRYGMGWYRPAPRKERELVAAITRSGSTNYADSVKERFTISRDNAKYTVYLQMNSLKPEDTAVYYGATDKRGRIGGTFDYWGQGTQVTVSS	low polyreactivity
QVQLVESGGGLVQAGGSLRLSCAASGSIFFLYTMGWYRQARGKERELVAAITRNGGSTYYADSVKGRFTISRDNAKNTVYLQMNSLKPEDTAVYYCNALRWYSYNYWGQGTQVTVSS	high polyreactivity
QVQLVESGGGLVQAGGSLRLSCAASGFTFFPNAKGWYRQAPGKERELVADITDGGSTNYADSVKGRFTISRDNAKNTVYLQMNSLKPEDTAVYYCNADWYGWFGGYEYWGQGTQVTVSS	high polyreactivity
QHQLVESGAALVQAGGSLLVICAASVFTFPFYTMGWYRQAPGKEMELVAAISTSGAGTYYAESVKGRFTISRDNAKNTVYLQMNSLKTEDTAVYYCAAYKRGRREMDYWGQGTQVTVSS	high polyreactivity
QVQLVESGGGLVQAGGSLRLSCAASGNIFSTYAMGWYRQAPGKERELVAAISKSGGRTYYADSVKGRFTISRDNAKNTVYLQMNSLKPEDTAVYYCNKRYQHGISFGYGYWGQGTQVTVSS	high polyreactivity
QVQLVESVVGLVQAGGSLRLSCAASGRTFYRNGMGWYRQAPGKERELVAAISSRGGSTYYADSVKGRFTISRDNAKNTVYLQMNSLKPEDTAVYYCAAPRASGYYWGQGTQVTVSS	high polyreactivity
QDQLVESGGGLVQAGGSLRLSCAASGFTLHVYAMGWYRQAPGKERELVAAISTGGNTNYGDSVKGRFTISRDNAKNTVYLQMNSLKPEDTAVYYCNARYTSRRSRRPYYYWGQGTQVTVSS	high polyreactivity
